Results: IntAct's records for PubMed 16698797

B1: Protein O-mannosyl-transferase 1 (Homo sapiens), Q9Y6A1 (parent)
chain: MWGFLKRPVVVTADINLSLVALTGMGLLSRLWRLTYPRAVVFDEVYYGQYISFYMKQIFFLDDSGPPFGHMVLALGGYLGGFDGNFLWNRIGAEYSSNVPVWSLRLLPALAGALSVPMAYQIVLELHFSHCAAMGAALLMLIENALITQSRLMLLESVLIFFNLLAVLSYLKFFNCQKHSPFSLSWWFWLTLTGVACSCAVGIKYMGVFTYVLVLGVAAVHAWHLLGDQTLSNVGADVQCCMRPACMGQMQMSQGVCVFCHLLARAVALLVIPVVLYLLFFYVHLILVFRSGPHDQIMSSAFQASLEGGLARITQGQPLEVAFGSQVTLRNVFGKPVPCWLHSHQDTYPMIYENGRGSSHQQQVTCYPFKDVNNWWIVKDPRRHQLVVSSPPRPVRHGDMVQLVHGMTTRSLNTHDVAAPLSPHSQEVSCYIDYNISMPAQNLWRLEIVNRGSDTDVWKTILSEVRFVHVNTSAVLKLSGAHLPDWGYRQLEIVGEKLSRGYHGSTVWNVEEHRYGASQEQRERERELHSPAQVDVSRNLSFMARFSELQWRMLALRSDDSEHKYSSSPLEWVTLDTNIAYWLHPRTSAQIHLLGNIVIWVSGSLALAIYALLSLWYLLRRRRNVHDLPQDAWLRWVLAGALCAGGWAVNYLPFFLMEKTLFLYHYLPALTFQILLLPVVLQHISDHLCRSQLQRSIFSALVVAWYSSACHVSNTLRPLTYGDKSLSPHELKALRWKDSWDILIRKH
partner: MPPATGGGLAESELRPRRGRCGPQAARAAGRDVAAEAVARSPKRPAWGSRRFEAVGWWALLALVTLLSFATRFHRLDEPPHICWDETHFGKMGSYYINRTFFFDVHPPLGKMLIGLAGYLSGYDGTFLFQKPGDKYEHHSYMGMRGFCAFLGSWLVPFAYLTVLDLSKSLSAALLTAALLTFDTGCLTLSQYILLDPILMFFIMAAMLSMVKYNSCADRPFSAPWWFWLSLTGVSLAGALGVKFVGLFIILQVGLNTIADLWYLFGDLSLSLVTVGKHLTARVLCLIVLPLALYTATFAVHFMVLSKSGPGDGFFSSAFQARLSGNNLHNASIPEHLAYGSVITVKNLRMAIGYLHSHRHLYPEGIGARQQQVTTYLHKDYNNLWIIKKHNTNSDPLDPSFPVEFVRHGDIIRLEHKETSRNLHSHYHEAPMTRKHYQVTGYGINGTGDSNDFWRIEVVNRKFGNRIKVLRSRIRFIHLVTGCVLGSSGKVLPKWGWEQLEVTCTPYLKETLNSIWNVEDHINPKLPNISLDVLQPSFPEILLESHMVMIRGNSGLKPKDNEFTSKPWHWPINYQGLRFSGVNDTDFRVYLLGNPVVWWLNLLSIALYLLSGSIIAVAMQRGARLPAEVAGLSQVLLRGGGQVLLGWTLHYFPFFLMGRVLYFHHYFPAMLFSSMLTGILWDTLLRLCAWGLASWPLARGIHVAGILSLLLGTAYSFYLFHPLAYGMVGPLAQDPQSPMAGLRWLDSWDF

Variants of: B1
Settings: with pomt2_human POMT2, Q9UKY4

Effect of a mutation on the interaction, with no effect:
G76R
G65R
W582C
A200P
V428D
